From paper PMC10184318, “The fission yeast cytokinetic ring component Fic1 promotes septum formation” (Biology Open, 2023) come the findings set out here.

The target in this experiment is T1, Fic1-MBP (S. pombe, UniProt O94701 1-272).
T1 construct: Fic1 of S. pombe; The printed name puts MBP after Fic1; source: E. coli, purified (standard biochemistry techniques)
T1 sequence (looked up): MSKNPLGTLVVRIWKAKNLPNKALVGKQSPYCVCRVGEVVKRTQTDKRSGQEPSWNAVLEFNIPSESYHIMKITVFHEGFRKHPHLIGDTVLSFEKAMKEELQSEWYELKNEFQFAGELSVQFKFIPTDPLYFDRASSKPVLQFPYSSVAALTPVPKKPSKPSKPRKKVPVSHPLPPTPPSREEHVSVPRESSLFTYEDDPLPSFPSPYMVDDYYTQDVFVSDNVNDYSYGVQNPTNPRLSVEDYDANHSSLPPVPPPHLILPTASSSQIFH
Briefly: pull-down; in vitro binding assay with recombinant proteins, one bead-bound and one soluble; 20 mM Tris pH 7.4, 150 mM NaCl; 4°C, 1 h; three washes; SDS-PAGE and Coomassie staining. The following applies: both partners purified.

B1: Cyk3-SH3-GST (aa1-66) (domain or fragment, S. pombe, UniProt O14302 1-66, looked up)
chain: MSIPKQLPCMVRALYAWPGEREGDLKFTEGDLIECLSIGDGKWWIGRHINTNTQGIFPSNFVHCLD
notes: Cyk3 of S. pombe, SH3 domain, residues 1-66; The printed name puts GST after the SH3 domain (Cyk3-SH3-GST, against GST-Cdc15-SH3), which hints at a C-terminal GST; also called Cyk3's SH3 domain; source: E. coli, purified (standard biochemistry techniques)
In the case of B1, the binding result was “binds”.
